Data: patent EP4660202A1

Columns and labels:
huTregL1-his (human) [1] = molecular target: T1, huTregL1-his (human) (UniProt Q96JA1); assay: cross-linking MS (DSBU), sequence S362-K365 of huTregL1-his, trypsin-treated group
T1 sequence: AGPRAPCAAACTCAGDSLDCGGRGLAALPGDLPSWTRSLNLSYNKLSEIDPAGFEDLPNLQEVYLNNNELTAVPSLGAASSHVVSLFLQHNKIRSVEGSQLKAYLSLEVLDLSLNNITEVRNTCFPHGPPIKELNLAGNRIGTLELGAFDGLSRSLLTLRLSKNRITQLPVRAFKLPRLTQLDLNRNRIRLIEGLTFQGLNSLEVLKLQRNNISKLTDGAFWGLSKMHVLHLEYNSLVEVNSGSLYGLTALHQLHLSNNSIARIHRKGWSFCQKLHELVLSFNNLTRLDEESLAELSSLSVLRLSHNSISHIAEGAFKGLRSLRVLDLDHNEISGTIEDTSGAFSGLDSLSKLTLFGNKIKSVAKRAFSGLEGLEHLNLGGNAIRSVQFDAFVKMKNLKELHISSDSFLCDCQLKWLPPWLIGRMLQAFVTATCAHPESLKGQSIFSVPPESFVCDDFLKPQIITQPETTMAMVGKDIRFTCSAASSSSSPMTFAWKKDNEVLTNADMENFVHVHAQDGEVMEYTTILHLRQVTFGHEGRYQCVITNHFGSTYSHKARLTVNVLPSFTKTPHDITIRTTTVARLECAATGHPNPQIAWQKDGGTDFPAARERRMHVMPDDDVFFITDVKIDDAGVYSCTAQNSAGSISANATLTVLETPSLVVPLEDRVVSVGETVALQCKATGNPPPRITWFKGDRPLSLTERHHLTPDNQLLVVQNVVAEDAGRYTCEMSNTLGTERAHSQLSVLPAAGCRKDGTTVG

huTregL1-his (human) [2] = molecular target: T1, huTregL1-his (human); assay: covalent labelling MS (DEPC), sequence E62-L101 of huTregL1-his, antigen alone against antigen+antibody
huTregL1-his (human) [3] = molecular target: T1, huTregL1-his (human); assay: covalent labelling MS (DEPC), sequence Q542-Y553 of huTregL1-his, chymotrypsin-treated group, antigen alone against antigen+antibody
huTregL1-his (human) [4] = molecular target: T1, huTregL1-his (human); assay: cross-linking MS (DSBU), sequence L88-K92 of huTregL1-his, chymotrypsin or trypsin
huTregL1-his (human) [5] = molecular target: T1, huTregL1-his (human); assay: cross-linking MS (DSBU), sequence S90-L101 of huTregL1-his, chymotrypsin or trypsin
huTregL1-his (human) [6] = molecular target: T1, huTregL1-his (human); assay: covalent labelling MS (DEPC), sequence D111-L134 of huTregL1-his, chymotrypsin-treated group, antigen alone against antigen+antibody
huTregL1-his (human) [7] = molecular target: T1, huTregL1-his (human); assay: cross-linking MS (DSBU), sequence N211-W222 of huTregL1-his, chymotrypsin or trypsin

B1: GTC210-03 clone (antibody, mouse IgG2a, V domains shown)
VH: EVQLLESGGGLVQPGGSLRLSCAASGFTFSSYDMSWVRQAPGKGLEWVSGISPDGSNIYYADSVKGRFTISRDNSKNTLYLQMNSLRAEDTAVYYCAKVGLRCRYEACSYAYGMDVWGQGTLVTVSS
VL: QSVLTQPPSASGTPGQRVTISCSGSSSNIGSNYVSWYQQLPGTAPKLLIYSDSHRPSGVPDRFSGSKSGTSASLAISGLRSEDEADYYCATWDSSLNGYVFGGGTKLTVLR
T% (peptides of the same sequence detected in the test sample compared to the control) (huTregL1-his (human) [1]): 0% | labeling decrease (%) (huTregL1-his (human) [2]): 13.2% | labeling decrease (%) (huTregL1-his (human) [3]): 14.7% | T% (peptides of the same sequence detected in the test sample compared to the control) (huTregL1-his (human) [4]): < 2% | T% (peptides of the same sequence detected in the test sample compared to the control) (huTregL1-his (human) [5]): < 2% | labeling decrease (%) (huTregL1-his (human) [6]): 15.3% | T% (peptides of the same sequence detected in the test sample compared to the control) (huTregL1-his (human) [7]): < 2%
